We go through one substance from PMC4289141.

The target of test [1] is ^C81/C96RIDC1 (the C81/C96 double mutant of Rosetta Interface Designed Cytochrome 1) (UniProt P0ABE7). The test is described as follows: cross-linking.
For test [2] the target is unchanged. The test is described as follows: AUC.

In test [1], “^C81/C96RIDC1 (the C81/C96 double mutant of Rosetta Interface Designed Cytochrome 1) (from UniProt P0ABE7 23-128) (natural protein)” came in with an abundance of polymeric species (19:1 GSH/GSSG, 1 mM, 1 day) of 13%; an abundance of the tetramer (air oxidation, room temperature) of 48%; a yield of the tetramer (19:1 GSH/GSSG, 1 mM, 1 day) of 63%. This substance also had a stoichiometry N in test [2] of 4.

In general, stoichiometry N refers to the number of molecules, sites or subunits per partner or assembly.
